These results are taken from patent publication US20190269788A1 (PIERRE FABRE MEDICAMENT, published 2019).

The target in test [1] is T1, human IGF-1R, native, on MCF-7 cells or on hIGF-1R transfected cells (human, UniProt P08069 31-1367). Briefly: cell-based or functional assay.
Test [2] addresses T1, human IGF-1R, native, on MCF-7 cells or …. Kind of test: cell-based or functional assay. The source holds these as a separate data set.
Test [3] shares this target. Kind of test: cell-based or functional assay. This is another data set of the same source.
The target of test [4] is T2, rhAxl-Fc protein (R and D Systems, cat No 154-AL) (human, UniProt P30530 26-451).
T2 construct: Bought; also called recombinant human Axl-Fc
Briefly: ELISA on coated rhAxl-Fc, anti-mouse IgG-HRP, TMB. The procedure:
(§1) Then 1/2 serial dilutions were done over 12 columns. Plates were washed and a goat anti-mouse (Jackson) specific IgG-HRP was added for 1 h at 37° C. Reaction development was performed using the TMB substrate solution. […] Coating controls were performed in presence of a goat anti-human IgG Fc polyclonal serum labelled with HRP (Jackson, ref 109-035-098) and/or in presence of a HRP-coupled anti-Histidine antibody (R and D Systems, ref: MAB050H).
(An ELISA detects its analyte on a solid surface through an enzyme-linked reagent.)

For test [5], the target named is T3, rhDtk-Fc (R and D Systems, cat No 859-DK) (human, UniProt Q06418 41-428, limits assumed).
T3 construct: Bought
T3 sequence (looked up): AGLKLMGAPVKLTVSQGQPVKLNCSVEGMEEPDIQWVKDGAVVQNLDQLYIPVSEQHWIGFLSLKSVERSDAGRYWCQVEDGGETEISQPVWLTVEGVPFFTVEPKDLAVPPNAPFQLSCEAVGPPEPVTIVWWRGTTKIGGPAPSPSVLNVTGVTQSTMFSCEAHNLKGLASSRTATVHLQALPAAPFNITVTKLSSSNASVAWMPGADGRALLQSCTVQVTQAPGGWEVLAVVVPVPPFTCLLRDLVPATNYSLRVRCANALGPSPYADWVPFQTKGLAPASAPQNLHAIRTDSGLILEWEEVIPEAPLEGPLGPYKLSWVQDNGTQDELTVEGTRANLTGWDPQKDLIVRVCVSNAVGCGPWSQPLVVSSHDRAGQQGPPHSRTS
Briefly: ELISA on coated rhDtk-Fc, anti-mouse IgG-HRP, TMB. The procedure:
as §1

The target of test [6] is T4, rhMer-Fc (R and D Systems, cat No 891-MR) (human, UniProt Q12866 26-499, limits assumed).
T4 construct: Bought
T4 sequence (looked up): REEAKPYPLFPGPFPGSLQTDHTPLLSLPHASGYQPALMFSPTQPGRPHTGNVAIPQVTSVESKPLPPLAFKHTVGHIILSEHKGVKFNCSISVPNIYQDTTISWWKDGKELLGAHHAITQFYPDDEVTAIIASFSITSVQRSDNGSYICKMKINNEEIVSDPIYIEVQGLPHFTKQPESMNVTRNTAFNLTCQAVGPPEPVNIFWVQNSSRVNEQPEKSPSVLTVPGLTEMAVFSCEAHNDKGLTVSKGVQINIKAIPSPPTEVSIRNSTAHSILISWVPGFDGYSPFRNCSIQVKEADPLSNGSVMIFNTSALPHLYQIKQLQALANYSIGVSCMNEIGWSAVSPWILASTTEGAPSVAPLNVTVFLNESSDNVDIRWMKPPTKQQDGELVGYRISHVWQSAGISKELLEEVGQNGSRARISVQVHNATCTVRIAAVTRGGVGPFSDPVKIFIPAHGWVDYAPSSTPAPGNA
Briefly: ELISA on coated rhMer-Fc, anti-mouse IgG-HRP, TMB. The procedure: as §1

For test [7], the target named is T5, human Axl receptor on human tumor cells (SN12C and other lines) (human, UniProt P30530 26-894).
T5 construct: also called membrane Axl receptor; cell-surface Axl
Kind of test: FACS titration on SN12C cells, anti-mouse Alexa 488. The procedure:
(§2) After 3 washes in phosphate-buffered saline (PBS) supplemented with 1% BSA and 0.01% NaN₃, cells were incubated with secondary antibody Goat anti-mouse Alexa 488 (1/500° dilution) for 20 minutes at 4° C. After 3 additional washes in PBS supplemented with 1% BSA and 0.1% NaN₃, cells were analyzed by FACS (Facscalibur, Becton-Dickinson). At least 5000 cells were assessed to calculate the mean value of fluorescence intensity.

In test [8] the target is T5, human Axl receptor on human tumor cells …. Briefly: FACS titration on MDA-MB-231 cells, anti-mouse Alexa 488. The procedure: as §2

Positions count from the first letter of the chain named. Where two headings read alike, the source gives them in different places.

T5 sequence (P30530 26-894 D266N limits assumed): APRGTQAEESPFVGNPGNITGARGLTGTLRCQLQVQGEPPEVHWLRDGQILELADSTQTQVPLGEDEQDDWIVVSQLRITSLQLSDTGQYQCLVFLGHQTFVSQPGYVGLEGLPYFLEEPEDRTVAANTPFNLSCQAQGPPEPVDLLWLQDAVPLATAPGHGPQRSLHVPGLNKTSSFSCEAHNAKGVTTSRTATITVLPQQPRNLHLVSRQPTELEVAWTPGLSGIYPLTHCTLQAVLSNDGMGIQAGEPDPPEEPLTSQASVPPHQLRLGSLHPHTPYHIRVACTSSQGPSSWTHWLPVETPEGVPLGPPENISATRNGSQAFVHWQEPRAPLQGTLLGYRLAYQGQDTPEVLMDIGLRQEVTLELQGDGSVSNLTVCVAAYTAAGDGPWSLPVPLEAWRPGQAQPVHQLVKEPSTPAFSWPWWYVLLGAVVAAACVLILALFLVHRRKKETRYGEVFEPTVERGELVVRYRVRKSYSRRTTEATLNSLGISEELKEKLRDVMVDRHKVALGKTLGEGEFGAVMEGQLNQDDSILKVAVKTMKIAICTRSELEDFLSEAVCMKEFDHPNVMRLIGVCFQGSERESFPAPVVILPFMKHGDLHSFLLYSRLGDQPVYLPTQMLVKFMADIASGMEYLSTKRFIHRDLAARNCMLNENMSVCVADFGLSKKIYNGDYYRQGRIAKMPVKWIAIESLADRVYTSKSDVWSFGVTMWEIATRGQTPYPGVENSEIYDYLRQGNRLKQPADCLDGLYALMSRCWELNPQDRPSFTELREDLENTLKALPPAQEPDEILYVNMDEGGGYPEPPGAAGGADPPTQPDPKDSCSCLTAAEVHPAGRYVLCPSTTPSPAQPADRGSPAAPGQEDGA
T2 sequence (P30530 26-451 D266N): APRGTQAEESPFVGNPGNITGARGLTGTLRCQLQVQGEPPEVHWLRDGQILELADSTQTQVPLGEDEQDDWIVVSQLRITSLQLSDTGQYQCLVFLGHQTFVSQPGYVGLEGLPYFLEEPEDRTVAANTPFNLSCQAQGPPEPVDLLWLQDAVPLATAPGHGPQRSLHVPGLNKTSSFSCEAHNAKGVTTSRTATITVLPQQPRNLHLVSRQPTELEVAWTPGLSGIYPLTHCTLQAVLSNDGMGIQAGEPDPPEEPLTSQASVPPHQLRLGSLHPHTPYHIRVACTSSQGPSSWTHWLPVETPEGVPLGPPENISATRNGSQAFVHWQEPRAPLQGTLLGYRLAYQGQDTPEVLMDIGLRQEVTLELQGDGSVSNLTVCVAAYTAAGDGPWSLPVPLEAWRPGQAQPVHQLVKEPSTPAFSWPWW

B1: hz208F2 VH3/VL3 (antibody, human IgG1, kappa, V domains shown)
VH: QVQLVQSGAEVKKPGASVKMSCKASGYTFTSYYIYWVKQAPGQGLEWLGWIWPGDGSTKYNEKFQGRVTLTADKSSNTAYMFLSSLRSEDTAVYFCASPMITPNYAMDYWGQGTLVTVSS
VL: DIQMTQSPSSLSASVGDRVTISCRASQDISKYLNWYQQKPGKAPKLLIYYTSRLHSGVPSRFSGRGSGTDYSLTISNLQPEDFATYFCQQGSTLPYTFGGGTKVEIKR
For B1, in test [1], the “% internalization (MCF-7, 10 µg/ml)” value was 87% and the “ΔMFI (MCF-7, 4°C minus 37°C, 4 h)” value amounted to 344 MFI.

B2: c212A11 (antibody, human IgG1, kappa, V domains shown)
VH: QVQLQQSGPELVKPGASVKMSCKASGYTFTSYYIHWVKQRPGQGLEWIGWIWPGDGSTKYNEKFKGKTTLTADKSSSTAYMFLSSLTSEDSAVYFCASPMITPNYAMDYWGQGASVTVSS
VL: DIQMTQTTSSLSASLGDRVTISCRASQDINKYLNWYQQQPDGTVKLLIYYTSRLHSGVPSRFSGRGSGTDYSLTISNLEQEDIATYFCQQGSTLPYTFGGGTKLEIKR
B2: the “phosphorylation of hIGF-1R as % of phosphorylation induced by IGF-1 (MCF-7, 10 µg/ml Ab)” value in test [2] was below 10%. The “ΔMFI (MCF-7, 4°C minus 37°C, 4 h)” value in test [3] amounted to 322 MFI.

B3: m212A11 (antibody, V domains shown)
VH: B2 VH
VL: DIQMTQTTSSLSASLGDRVTISCRASQDINKYLNWYQQQPDGTVKLLIYYTSRLHSGVPSRFSGRGSGTDYSLTISNLEQEDIATYFCQQGSTLPYTFGGGTKLEIK
Consider B3, for which, in test [2], the “inhibition of hIGF-1R phosphorylation in response to IGF-1 (MCF-7)” value (from here on “inhibition of hIGF-1R phosphorylation”) is above 80%.

B4: c214F8 (antibody, human IgG1, kappa)
heavy: not shown
light: DIQMTQTTSSLSASLGDRVTFSCRASQDISKYLNWYQQQPDGTIKLLIYYTSRLHSGVPSRFSGRGSGTDYSLTITNLEQEDIATYFCQQGSALPYTFGGGTKLEIKRTVAAPSVFIFPPSDEQLKSGTASVVCLLNNFYPREAKVQWKVDNALQSGNSQESVTEQDSKDSTYSLSSTLTLSKADYEKHKVYACEVTHQGLSSPVTKSFNRGEC
For B4, in test [2], the “phosphorylation of hIGF-1R as % of phosphorylation induced by IGF-1 (MCF-7, 10 µg/ml Ab)” value is below 10%. For the same molecule, in test [3], the “ΔMFI (MCF-7, 4°C minus 37°C, 4 h)” value is 403 MFI.

B5: m214F8 (antibody, V domains shown)
VH: B2 VH with P9S, M20L, K63R
VL: B3 VL with I21F, N30S, V44I, S76T, T93A
As for B5, in test [2], the “inhibition of hIGF-1R phosphorylation” value was above 80%.

B6: m219D6 (antibody, V domains shown)
VH: B2 VH with A16D, T28S, Y33F, A72T, S84N
VL: B3 VL with N30S
In the case of B6, the “inhibition of hIGF-1R phosphorylation” value in test [2] was above 80%.

B7: c219D6 (antibody, human IgG1, kappa, V domains shown)
VH: B2 VH with A16D, T28S, Y33F, A72T, S84N
VL: B2 VL with N30S
For B7, in test [2], the “phosphorylation of hIGF-1R as % of phosphorylation induced by IGF-1 (MCF-7, 10 µg/ml Ab)” value is below 10%. In test [3], the “ΔMFI (MCF-7, 4°C minus 37°C, 4 h)” value turned out to be 353 MFI.

B8: c213B10 (antibody, human IgG1, kappa)
heavy: not shown
light: B4 light with F21I
For B8, the “phosphorylation of hIGF-1R as % of phosphorylation induced by IGF-1 (MCF-7, 10 µg/ml Ab)” value in test [2] was below 10%. In test [3], the “ΔMFI (MCF-7, 4°C minus 37°C, 4 h)” value worked out at 369 MFI.

B9: c208F2 (antibody, human IgG1, kappa, V domains shown)
VH: B2 VH with H35Y, I48L, G66D, S77N
VL: B2 VL with N30S, V44I, L78V
For the molecule B9, in test [2], the “phosphorylation of hIGF-1R as % of phosphorylation induced by IGF-1 (MCF-7, 10 µg/ml Ab)” value is below 10%. For the same molecule, the “ΔMFI (MCF-7, 4°C minus 37°C, 4 h)” value in test [3] was 288 MFI. Also, in test [1], the “% internalization (MCF-7, 10 µg/ml)” value was 82% and the “ΔMFI (MCF-7, 4°C minus 37°C, 4 h)” value was determined as 278 MFI.

B10: m213B10 (antibody, V domains shown)
VH: B2 VH with P9S, K63R
VL: B3 VL with N30S, V44I, S76T, T93A
With B10, the “inhibition of hIGF-1R phosphorylation” value in test [2] was above 80%.

B11: m208F2 (antibody, V domains shown)
VH: B2 VH with H35Y, I48L, G66D, S77N
VL: B3 VL with N30S, V44I, L78V
As to B11, in test [2], the “inhibition of hIGF-1R phosphorylation” value is above 80%. In addition, in test [1], the “% internalization (MCF-7, 10 µg/ml)” value was 88% and the “ΔMFI (MCF-7, 4°C minus 37°C, 4 h)” value came out at 294 MFI.

B12: m1613F12 (antibody, V domains shown)
VH: EVHLQQSGAELVKPGASVKLSCTASGFNIRDTYIHWVKQRPEQGLEWIGRLDPANGHTKYGPNFQGRATMTSDTSSNTAYLQLSSLTSEDTAVYYCARGAYYYGSSGLFYFDYWGQGTTLSVSS
VL: DVQITQSPSYLATSPGETITINCRASKSISKYLAWYQEKPGKTNKLLIYSGSTLQSGVPSRFSGSGSGTDFTLTISSLEPEDFAMYFCQQHHEYPLTFGAGTELELK
notes: Murine monoclonal antibody, detected with anti-mouse IgG; also called murine 1613F12; hybridoma I-4505
A word on the EC50 (read off the curve): it is the concentration at which the effect is half-maximal. For the molecule B12, the figures for the half-maximal effective concentration (EC50 (read off the curve)) in test [4], in test [7] and in test [8] were around 1 nM, around 0.9 nM and around 1 nM, respectively. The binding result in test [5] and in test [6] was “no binding (tested: log (M) -7.5 (about 3e-8 M))” each time.
